Data published in patent CN115490770A (GMAX BIOPHARM HANGZHOU CO LTD, dated 2022).

Assays:
人ETA (内皮素受体A) = biological target: T1, 人ETA (内皮素受体A) (human, UniProt P25101 21-427); test: flow cytometry (FACS) on CHO-ETA cells, anti-human IgG Fc PE secondary
T1 construct: whole, on cells; The plasmid's ETA construct is not described further; also called CHO-ETA; CHO-ETA-EGFP
T1 sequence (looked up): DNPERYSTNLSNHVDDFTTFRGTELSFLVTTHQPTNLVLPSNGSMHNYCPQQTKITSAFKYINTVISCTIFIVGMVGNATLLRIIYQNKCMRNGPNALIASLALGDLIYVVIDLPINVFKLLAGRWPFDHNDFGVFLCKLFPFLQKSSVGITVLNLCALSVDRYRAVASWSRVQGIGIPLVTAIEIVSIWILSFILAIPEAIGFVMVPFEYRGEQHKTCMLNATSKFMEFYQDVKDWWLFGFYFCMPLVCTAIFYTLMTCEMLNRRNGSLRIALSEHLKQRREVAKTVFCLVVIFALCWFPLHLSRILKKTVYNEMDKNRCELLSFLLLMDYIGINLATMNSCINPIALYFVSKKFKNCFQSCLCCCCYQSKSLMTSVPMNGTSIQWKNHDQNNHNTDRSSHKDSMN

人CD3 = biological target: T2, 人CD3 (human, UniProt P07766 23-207); test: flow cytometry (FACS) on Jurkat cells, anti-human IgG Fc PE secondary
T2 construct: whole, on cells; Natural CD3 complex on Jurkat T cells (and CIK cells); also called Jurkat细胞表面人CD3分子
T2 sequence (P07766 23-207): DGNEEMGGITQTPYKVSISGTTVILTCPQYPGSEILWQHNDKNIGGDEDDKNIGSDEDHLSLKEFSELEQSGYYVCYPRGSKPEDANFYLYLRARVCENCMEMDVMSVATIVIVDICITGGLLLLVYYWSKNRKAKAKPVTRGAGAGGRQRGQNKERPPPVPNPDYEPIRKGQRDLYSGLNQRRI

B1: αETA(L5H5,SEQ NO ID:19+SEQ NO ID:20)/αCD3(L3H3,SEQ NO ID:15+SEQ NO ID:16)双特异性抗体 (bispecific antibody)
chain 1: QVTLKESGPTLVKPTQTLTLTCTFSGFSLTTSGLGVAWIRQPPGKALEWLAHIWSDGDTRYYPALKNRLTITKDTSKNQVVLTMTNMDPVDTATYYCAHMKDDSLYFDNWGQGTLVTVSS
chain 2: EIVLTQSPDFQSVTPKEKVTITCRASQNIGTSIHWYQQKPDQSPKLLIKYASKSISGVPSRFSGSGSGTDFTLTINSLEAEDAATYYCQHSYSFPWTFGQGTKVEIK
chain 3: EAVVTQEPSLTVSPGGTVTLTCRSSTGAVTTSNYANWVQQKPGQAPRGLIGGTNKRAPWTPARFSGSLLGGKAALTLSGAQPEDEAEYYCALWYSNLWVFGGGTKLTVL
chain 4: EVQLVESGGGLVQPGGSLRLSCAASGFTFNTYAMNWVRQAPGKGLEWVGRIRSKYNNYATYYADSVKDRFTISRDDSKNTLYLQMNSLRAEDTAVYYCVRHGNFGNSYVSWFAYWGQGTLVTVSS
B1 was tested, and the EC50 (人ETA (内皮素受体A)) was 3.51 nM and the EC50 (人CD3) was 10.7 nM.
